According to paper PMC3365061:

Biological target: K5,83R-JMD (mouse)
Experiment: co-IP; RFP chimeras immunoprecipitated with rabbit polyclonal anti-RFP on Protein A beads (Figure 2C also with E2 antibody to the E-cadherin cytoplasmic domain) from MDCK extracts, 0.1% Triton X-100 in CSK buffer (50 mM NaCl, 300 mM sucrose, 10 mM Pipes pH 6.8, 3 mM MgCl2), 4°C; stable or transient expression; with or without 10 µM MG-132 for 4 h, 10 mM NEM in the extraction buffer, Src-GFP or Hakai-FLAG expression; blots for p120-catenin and tubulin

- fold amount co-immunoprecipitated, against WT-JMD: 10 fold
- fold increase of the amount co-immunoprecipitated upon proteasome inhibition: 0.4 fold
Substance: p120-catenin (natural protein)
